Laboratory results taken from publication PMC3812226, “A New Short Oligonucleotide-Based Strategy for the Precursor-Specific Regulation of microRNA Processing by Dicer”.

What was measured:
[1] = molecular target: T1, hDicer (human recombinant Dicer) (human, UniProt Q9UPY3 1-1922); assay: competition; displaces labeled ATD_13.6 (most profound effect); Filter binding: 20 mM Tris-HCl pH 7.5, 250 mM NaCl (membrane pre-soak/reaction buffer), 37 C 30 min; hDicer EMSA: 20 min at 4 C, Dicer preincubated without divalent cations (Fig S1), native PAGE; settings: protein: commercial; hairpin
[2] = molecular target: T1, hDicer (human recombinant Dicer); assay: competition; displaces labeled ATD_13.6; Filter binding: 20 mM Tris-HCl pH 7.5, 250 mM NaCl (membrane pre-soak/reaction buffer), 37 C 30 min; hDicer EMSA: 20 min at 4 C, Dicer preincubated without divalent cations (Fig S1), native PAGE; settings: protein: commercial; hairpin
[3] = molecular target: T1, hDicer (human recombinant Dicer); assay: EMSA; 4 C; Filter binding: 20 mM Tris-HCl pH 7.5, 250 mM NaCl (membrane pre-soak/reaction buffer), 37 C 30 min; hDicer EMSA: 20 min at 4 C, Dicer preincubated without divalent cations (Fig S1), native PAGE; settings: protein: commercial; label: 5'-32P; single strand
[4] = molecular target: T1, hDicer (human recombinant Dicer); assay: EMSA; no divalent metal, 4 C; Filter binding: 20 mM Tris-HCl pH 7.5, 250 mM NaCl (membrane pre-soak/reaction buffer), 37 C 30 min; hDicer EMSA: 20 min at 4 C, Dicer preincubated without divalent cations (Fig S1), native PAGE; settings: protein: commercial; label: 5'-32P

B1: pre-miR-16-1 (structured_RNA)
RNA: UAGCAGCACGUAAAUAUUGGCGUUAAGAUUCUAAAAUUAUCUCCAGUAUUAACUGUGCUGCUGAA
- binding result [1]: binds

B2: pre-miR-21 (structured_RNA)
RNA: AGCUUAUCAGACUGAUGUUGACUGUUGAAUCUCAUGGCAACACCAGUCGAUGGGCUGU
- binding result [2]: binds

Binder: GGGGCAGCGCAG (XNA, 2'-O-methyl at every ribose) [2OMe-AL-210]
- binding result [3]: binds

B3: ATD_15.52 (structured_RNA)
RNA: GGGAGAAUCAUAAGUAGCGCAGUGAGUCGUUGUGCUGCCCAUGUUAACAGUUAGCC
- binding result [4]: binds

B4: pre-miR-33a (structured_RNA)
RNA: GUGCAUUGUAGUUGCAUUGCAUGUUCUGGUGGUACCCAUGCAAUGUUUCCACAGUGCAUC
- binding result [2]: binds
